Test results published in US20140099668A1.

Biological target: ERK (extracellular-signal-regulated kinase; mitogen-activated protein kinase)
Assay: cell-based or functional assay

B1: ERK decoy protein (ER localization signal, a c-Myc epitope tag, and the ERK polyligand of SEQ ID NO:1) (designed binder, part only; not given: ER signal and c-Myc tag, not shown: small tags and cut ends)
chain, part: MPKKKPTPIQLNPAAKGRKPRDLELPAAAATGPLAPGPFGAGAYSPTAPTYSPTAPKKKGGGGAPRAPGGRRAGAGRRPRAPAKLSFFFPS
B1 was tested, and the ERK activity in the endoplasmic reticulum (phosphorylation of myelin basic protein), Cos7 cells with M1-RasV12 was 60% and the decrease in transformed foci formation, NIH3T3 cells transfected with H-RasV12 was 50%.
